In patent US20230049152A1 (Genentech, published 2023):
Changes are numbered by the printed parent chain.

How the values were obtained:
human ACKR4 [1] = biological target: T1, human ACKR4 (human, UniProt Q9NPB9 1-350); assay: flow cytometry, HEK293 with N-term FLAG-tagged human ACKR4
T1 construct: whole, on cells; transiently expressed on HEK293 cells
T1 sequence (looked up): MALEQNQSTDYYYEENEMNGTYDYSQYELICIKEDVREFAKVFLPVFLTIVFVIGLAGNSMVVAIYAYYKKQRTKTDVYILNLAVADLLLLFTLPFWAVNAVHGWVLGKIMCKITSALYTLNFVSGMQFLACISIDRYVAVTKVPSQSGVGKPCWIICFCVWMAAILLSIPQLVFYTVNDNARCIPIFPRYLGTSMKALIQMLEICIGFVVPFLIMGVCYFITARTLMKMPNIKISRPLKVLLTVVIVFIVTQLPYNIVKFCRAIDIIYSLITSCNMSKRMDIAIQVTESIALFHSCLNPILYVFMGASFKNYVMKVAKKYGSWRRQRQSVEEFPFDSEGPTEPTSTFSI
From the text: (§1) FIGS. 4A-4F depicts the binding data of hu.Ab3.H1L1 (FIG. 4A), hu.Ab4.H1L1 (FIG. 4B), and hu.Ab5.H1L1 (FIG. 4C), as well as the commercial anti-CCR8 mAbs murine anti-human CCR8 mAb 433H (BD Biosciences) (FIG. 4D), and murine anti-human CCR8 mAb L263G8 (Biolegend) (FIG. 4E), and the humanized anti-human Yoshida anti-CCR8 mAb (FIG. 4F), to HEK293 cells that were transiently transfected with N-term FLAG-tagged plasmids encoding for human GPCRs (CCR2, CCR3, CCR4, CCR5, CCR8, CXCR4, ACKR2, and ACKR4), hCCR8 constructs, or with a mock construct using transIT X2 (reagent:DNA=3:1).
(§2) To confirm the selectivity to CCR8, the binding of hu.Ab3.H1L1, hu.Ab4.H1L1, and hu.Ab5.H1L1, as well as the Yoshida humanized anti-human CCR8, murine anti-human CCR8 mAb L263G8 (Biolegend, Commercial Ab) and murine anti-human CCR8 mAb 433H (BD Biosciences, Commercial Ab), were characterized by flow cytometry on HEK293 cells that were transiently transfected with plasmids encoding for FLAG-tagged other related human GPCRs (CCR2-5, CXCR4, ACKR2, and ACKR4). Cell surface expression of each GPCR was confirmed by staining with an anti-FLAG antibody control. […]

human CCR4 = biological target: T2, human CCR4 (human, UniProt P51679 1-360); assay: flow cytometry, HEK293 with N-term FLAG-tagged human CCR4
T2 construct: whole, on cells; transiently expressed on HEK293 cells
T2 sequence (looked up): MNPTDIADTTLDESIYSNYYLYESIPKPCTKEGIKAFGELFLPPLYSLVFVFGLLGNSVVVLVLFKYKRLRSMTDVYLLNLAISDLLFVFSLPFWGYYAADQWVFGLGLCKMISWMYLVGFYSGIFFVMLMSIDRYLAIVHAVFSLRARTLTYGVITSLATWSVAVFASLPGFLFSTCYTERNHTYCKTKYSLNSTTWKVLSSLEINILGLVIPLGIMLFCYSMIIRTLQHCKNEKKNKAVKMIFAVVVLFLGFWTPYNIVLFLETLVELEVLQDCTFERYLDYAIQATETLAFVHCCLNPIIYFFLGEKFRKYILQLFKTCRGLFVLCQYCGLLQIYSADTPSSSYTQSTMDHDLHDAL
From the text: as §1, §2

GST-FcgR3a.F158 = biological target: T3, GST-FcgR3a.F158 (UniProt P08637 17-208, limits assumed); assay: ELISA, GST-FcgR3a.F158 captured by anti-GST antibody
T3 construct: Captured by anti-GST antibody on ELISA plate; also called FcgR3a.F158 protein; Fcgamma RIIIa F158; not shown: GST tag
Protocol: The binding of fucosylated and afucosylated variants of hu.Ab5.H13L1 and hu.Ab4.H12L3 to both FcgR3a proteins by ELISA was studied. Briefly, an anti-GST antibody was coated on Nunc Maxisorp plates. GST-FcgR3a.V158 and GST-FcgR3a.F158 were captured at 500 ng/mL. Plates were then washed and then serially diluted anti-CCR8 antibodies starting at 100 ug/mL were incubated on the plate for 1 hour at room temperature. Plates were washed and bound antibody was detected by a HRP-conjugated anti-human IgG secondary antibody. Absorbance at 450 nm was measured by a plate reader. The data were fitted using a 4-parameter logistic curve in Softmax Pro.

human ACKR2 = biological target: T4, human ACKR2 (human, UniProt O00590 1-384); assay: flow cytometry, HEK293 with N-term FLAG-tagged human ACKR2, procedure of FIG. 4
T4 construct: whole, on cells; transiently expressed on HEK293 cells
T4 sequence (looked up): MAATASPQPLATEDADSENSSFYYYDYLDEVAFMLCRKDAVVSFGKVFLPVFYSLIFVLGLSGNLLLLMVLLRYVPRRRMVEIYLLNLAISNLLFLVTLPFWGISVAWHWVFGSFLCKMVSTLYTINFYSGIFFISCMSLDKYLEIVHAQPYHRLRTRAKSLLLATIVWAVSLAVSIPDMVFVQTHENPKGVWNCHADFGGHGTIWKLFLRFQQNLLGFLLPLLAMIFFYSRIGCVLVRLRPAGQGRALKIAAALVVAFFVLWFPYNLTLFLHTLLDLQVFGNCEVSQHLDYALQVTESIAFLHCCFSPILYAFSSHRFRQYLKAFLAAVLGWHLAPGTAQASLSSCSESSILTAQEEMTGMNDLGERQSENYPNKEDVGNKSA
From the text: (§3) To confirm the selectivity to CCR8, the binding of hu.Ab3.H1L1, hu.Ab4.H1L1, and hu.Ab5.H1L1, as well as the Yoshida humanized anti-human CCR8, murine anti-human CCR8 mAb L263G8 (Biolegend, Commercial Ab) and murine anti-human CCR8 mAb 433H (BD Biosciences, Commercial Ab), were characterized by flow cytometry on HEK293 cells that were transiently transfected with plasmids encoding for FLAG-tagged other related human GPCRs (CCR2-5, CXCR4, ACKR2, and ACKR4). Cell surface expression of each GPCR was confirmed by staining with an anti-FLAG antibody control. In particular, HEK293 cells were transfected with N-term FLAG-tagged human CCR2, CCR3, CCR4, CCR5, CXCR4, ACKR2, ACKR4, hCCR8 constructs, or with a Mock construct using transIT X2 (reagent:DNA=3:1) for 24 hours, and surface stained with various anti-hCCR8 monoclonal antibodies at 5 ug/ml, or rabbit anti-Flag pAb (Sigma) followed by AF647-anti-hIgG or AF647-anti-RbIgG respectively. Antibodies hu.Ab4.H1L1, and hu.Ab5.H1L1, only stained the hCCR8-containing cells, confirming their specificity to hCCR8. […] Thus, the CCR8 selective hu.Ab4.H1L1 and hu.Ab5.H1L1 antibodies with the best ADCC activities were carried forward.
(§4) To reconfirm that the Ab4 and Ab5 variants remained selective to CCR8 compared to the corresponding HIL1 variants, binding was analyzed by flow cytometry following the procedure as described for FIG. 4A and FIG. 4B. […]

human ACKR4 [2] = biological target: T1, human ACKR4; assay: flow cytometry, HEK293 with N-term FLAG-tagged human ACKR4, procedure of FIG. 4
From the text: as §3, §4

human CXCR4 = biological target: T5, human CXCR4 (human, UniProt P61073 1-352); assay: flow cytometry, HEK293 with N-term FLAG-tagged human CXCR4, procedure of FIG. 4
T5 construct: whole, on cells; transiently expressed on HEK293 cells
From the text: as §3, §4

T3 sequence (P08637 17-208 limits assumed): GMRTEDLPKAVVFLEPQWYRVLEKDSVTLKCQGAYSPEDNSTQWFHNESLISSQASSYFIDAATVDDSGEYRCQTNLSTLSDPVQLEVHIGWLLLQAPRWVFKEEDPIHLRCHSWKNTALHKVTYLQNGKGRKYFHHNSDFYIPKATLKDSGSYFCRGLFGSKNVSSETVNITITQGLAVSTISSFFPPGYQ
T5 sequence (P61073 whole entry): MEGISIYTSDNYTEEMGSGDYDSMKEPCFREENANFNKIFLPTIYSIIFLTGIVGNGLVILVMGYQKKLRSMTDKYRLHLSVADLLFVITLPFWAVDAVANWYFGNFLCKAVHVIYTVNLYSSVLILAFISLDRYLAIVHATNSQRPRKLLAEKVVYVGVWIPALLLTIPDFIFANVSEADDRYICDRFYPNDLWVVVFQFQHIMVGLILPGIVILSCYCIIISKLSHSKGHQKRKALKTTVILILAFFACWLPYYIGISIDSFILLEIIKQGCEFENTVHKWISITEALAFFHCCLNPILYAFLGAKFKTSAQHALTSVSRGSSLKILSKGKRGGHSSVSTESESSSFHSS

B1: hu.Ab5.H1L1 (antibody, human IgG1, kappa)
heavy: not shown
light: DIQVTQSPSSLSASVGDRVTITCQASENIANALAWYQQKPGKPPKFLIYGASNLASGVPSRFSGSGSGTDFTFTISSLQPEDIATYYCQQAYYGNSFVEGTFGGGTKVEIKRTVAAPSVFIFPPSDEQLKSGTASVVCLLNNFYPREAKVQWKVDNALQSGNSQESVTEQDSKDSTYSLSSTLTLSKADYEKHKVYACEVTHQGLSSPVTKSFNRGEC
B1: no binding (tested: 5 ug/ml) (human ACKR4 [1]); no binding (tested: 5 ug/ml) (human CCR4).

B2: hu.Ab5.H13L1 (antibody, human IgG1, kappa)
heavy: not shown
light: B1 light
notes: fucosylated human IgG1; also called Ab5 variant
With B2 the EC50 (GST-FcgR3a.F158) was 4.11 µg/mL, the binding result (human ACKR2) was “no binding (tested: 5 ug/ml)” and the binding result (human ACKR4 [2]) was “no binding (tested: 5 ug/ml)”. B2: no binding (tested: 5 ug/ml) (human CXCR4).

B3: hu.Ab4.H1L1 (antibody, human IgG1, kappa)
heavy: not shown
light: DYQMTQSPSSLSASVGDRVTITCQASQSISSYLSWYQQKPGKRPKLLIYKASTLASGVPSRFSGSGSGTDFTLTISSLQPEDFATYYCQQGYTSSNIDNIFGGGTKVEIKRTVAAPSVFIFPPSDEQLKSGTASVVCLLNNFYPREAKVQWKVDNALQSGNSQESVTEQDSKDSTYSLSSTLTLSKADYEKHKVYACEVTHQGLSSPVTKSFNRGEC
notes: also called hu.Ab4.H1Ll
B3: no binding (tested: 5 ug/ml) (human ACKR4 [1]); no binding (tested: 5 ug/ml) (human CCR4).

B4: hu.Ab4.H12L3 (antibody, human IgG1, kappa)
heavy: not shown
light: B3 light with R43A
notes: fucosylated human IgG1; also called huCCR8-Ab4.H12L3.hIgG1; Ab4 variant
For B4, the EC50 (GST-FcgR3a.F158) was 3.74 µg/mL, the binding result (human ACKR2) was “no binding (tested: 5 ug/ml)” and the binding result (human ACKR4 [2]) was “no binding (tested: 5 ug/ml)”. B4: no binding (tested: 5 ug/ml) (human CXCR4).
